Four molecules from patent CN115368458A (BIO THERA SOLUTIONS LTD, dated 2022) can be followed below.

Experiment [1] has as its target T1, 人源hCD73-His (北京义翘神州, Catalog 10904-H08H) (human, UniProt P21589 27-547).
T1 construct: Bought protein; also called 人CD73; not shown: His tag
T1 sequence (looked up): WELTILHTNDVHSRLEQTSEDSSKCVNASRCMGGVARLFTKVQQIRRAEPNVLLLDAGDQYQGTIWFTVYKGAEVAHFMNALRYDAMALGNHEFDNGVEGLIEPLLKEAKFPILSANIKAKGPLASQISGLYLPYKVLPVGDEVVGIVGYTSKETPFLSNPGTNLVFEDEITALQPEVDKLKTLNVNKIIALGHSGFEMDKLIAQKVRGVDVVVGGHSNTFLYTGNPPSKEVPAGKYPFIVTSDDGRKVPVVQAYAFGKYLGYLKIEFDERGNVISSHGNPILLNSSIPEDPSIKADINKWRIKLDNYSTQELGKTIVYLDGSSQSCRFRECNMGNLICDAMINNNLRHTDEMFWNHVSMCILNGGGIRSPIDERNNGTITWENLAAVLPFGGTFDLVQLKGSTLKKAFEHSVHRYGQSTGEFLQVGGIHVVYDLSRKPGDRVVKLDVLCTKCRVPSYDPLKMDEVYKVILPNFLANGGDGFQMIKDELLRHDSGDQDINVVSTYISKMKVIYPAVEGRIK
Briefly: SPR, Biacore T200, antibody captured on Protein A chip, hCD73-His as analyte from 32 nM, 1:1 model. For orientation: Surface plasmon resonance follows binding to a sensor surface in real time, without labels.

Experiment [2] concerns the target T2, CD73 on the cell membrane of MDA-MB-231 cells (human breast cancer cells) (human, UniProt P21589 27-549).
T2 sequence (looked up): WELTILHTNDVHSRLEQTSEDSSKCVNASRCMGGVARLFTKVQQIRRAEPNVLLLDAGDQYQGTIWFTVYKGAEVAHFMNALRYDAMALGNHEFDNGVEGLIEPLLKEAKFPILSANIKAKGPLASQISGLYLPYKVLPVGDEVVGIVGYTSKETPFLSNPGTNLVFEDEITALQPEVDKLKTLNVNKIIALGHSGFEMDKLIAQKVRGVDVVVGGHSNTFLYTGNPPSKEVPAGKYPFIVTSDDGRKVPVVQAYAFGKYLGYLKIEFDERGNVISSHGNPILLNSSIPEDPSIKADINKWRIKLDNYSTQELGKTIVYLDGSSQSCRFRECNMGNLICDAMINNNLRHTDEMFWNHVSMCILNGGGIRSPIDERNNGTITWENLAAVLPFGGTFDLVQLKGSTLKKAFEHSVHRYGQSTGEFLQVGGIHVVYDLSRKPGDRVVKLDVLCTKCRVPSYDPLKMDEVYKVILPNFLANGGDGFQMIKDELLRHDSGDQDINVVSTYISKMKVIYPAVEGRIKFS
Briefly: cell-based or functional assay.

Experiment [3] deals with T3, 食蟹猴cCD73-His (近岸生物, Catalog CD3-C52H9) (cynomolgus monkey, UniProt A0A2K5V5U7 27-547).
T3 construct: Bought protein; also called 食蟹猴CD73; not shown: His tag
T3 sequence: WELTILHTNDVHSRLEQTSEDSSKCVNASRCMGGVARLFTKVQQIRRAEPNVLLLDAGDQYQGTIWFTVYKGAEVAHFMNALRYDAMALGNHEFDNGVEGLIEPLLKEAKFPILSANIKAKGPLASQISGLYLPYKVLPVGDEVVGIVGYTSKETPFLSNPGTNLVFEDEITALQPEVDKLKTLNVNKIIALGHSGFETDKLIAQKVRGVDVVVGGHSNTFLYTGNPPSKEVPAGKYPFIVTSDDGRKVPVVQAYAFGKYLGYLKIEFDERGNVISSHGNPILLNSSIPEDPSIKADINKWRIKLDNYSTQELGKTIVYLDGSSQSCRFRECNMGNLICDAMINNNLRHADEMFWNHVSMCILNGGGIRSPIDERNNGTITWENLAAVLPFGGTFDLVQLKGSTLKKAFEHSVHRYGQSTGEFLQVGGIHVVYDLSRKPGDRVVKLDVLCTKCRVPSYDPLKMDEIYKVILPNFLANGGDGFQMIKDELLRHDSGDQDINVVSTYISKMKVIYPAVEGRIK
As to the kind of experiment: ELISA, cCD73-His coated at 2 μg/ml, antibody from 4 μg/ml in 3-fold steps, anti-h-Kappa-HRP. (In general: An ELISA detects its analyte on a solid surface through an enzyme-linked reagent.)

Experiment [4] deals with T2, CD73 on the cell membrane of MDA-MB-231 …. As to the kind of experiment: flow cytometry (MFI) on MDA-MB-231 cells, antibody from 10 ug/ml in 2-fold steps, anti-humanFc-PE. (In flow cytometry, cells or beads pass a laser one at a time.)
In experiment [5] the target is T4, 鼠源mCD73-His (近岸生物, Catalog CD3-M52H9) (mouse, UniProt Q61503 29-551).
T4 construct: Bought protein; also called 小鼠CD73; not shown: His tag
T4 sequence (looked up): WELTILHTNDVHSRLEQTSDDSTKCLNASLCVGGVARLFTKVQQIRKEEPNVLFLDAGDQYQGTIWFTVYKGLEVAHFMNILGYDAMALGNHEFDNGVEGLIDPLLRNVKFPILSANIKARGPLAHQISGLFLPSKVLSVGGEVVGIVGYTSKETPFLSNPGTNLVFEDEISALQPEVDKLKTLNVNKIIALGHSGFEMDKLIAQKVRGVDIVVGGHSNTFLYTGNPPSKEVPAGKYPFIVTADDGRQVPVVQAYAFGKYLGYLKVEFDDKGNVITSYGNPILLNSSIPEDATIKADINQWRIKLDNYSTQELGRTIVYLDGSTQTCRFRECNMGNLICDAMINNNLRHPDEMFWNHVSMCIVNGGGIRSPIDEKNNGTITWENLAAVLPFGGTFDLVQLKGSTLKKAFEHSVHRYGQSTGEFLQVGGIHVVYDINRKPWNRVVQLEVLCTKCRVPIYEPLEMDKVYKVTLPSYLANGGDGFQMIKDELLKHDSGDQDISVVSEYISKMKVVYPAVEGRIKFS
As to the kind of experiment: ELISA, mCD73-His coated at 2 μg/ml, anti-h-Kappa-HRP detection; NA表示不结合或基本不结合.

Experiment [6] deals with T1, 人源hCD73-His (北京义翘神州, Catalog 10904-H08H). Briefly: ELISA, hCD73-His coated at 2 μg/ml, antibody from 4 μg/ml in 3-fold steps, anti-h-Kappa-HRP.

What is called Kd is a measure of binding affinity in units of concentration. The koff is a measure of how fast the partners let go of each other. Low readings indicate a long-lived complex, high ones a short-lived complex. Usually kon stands for a measure of how fast the partners come together. A higher kon goes with fast association. A word on the EC50: it is the concentration that produces a half-maximal response. Read a high EC50 as weaker potency.

B1: 抗体P59-L12 (antibody, IgG1, V domains shown)
VH: EVQLVESGGGLVQPGGSLRLSCAASGFSFDTYAMSWVRQAPGKGLEWVSAISGDTGVTGYADSVKGRFTISRDNSKNTLYLQMNSLRAEDTAVYYCARDRYAYLVDGWFDYWGQGTLVTVSS
VL: DIQMTQSPSSLSASVGDRVTITCRASQGISSYLAWYQQKPGKAPKLLIYAASSLQSGVPSRFSGSGSGTDFTLTISSLQPEDFATYYCQTSDFFPNPVTFGQGTKVEIK
Turning to B1, in experiment [1], binding was characterised by a dissociation constant (Kd) of 8.25 nM, the koff is 0.0068 s⁻¹ and the kon was 827000 M⁻¹ s⁻¹.

B2: 抗体P59-L1 (antibody, IgG1, V domains shown)
VH: EVQLVESGGGLVQPGGSLRLSCAASGFSFDTYAMSWVRQAPGKGLEWVSAISGDTGVTGYADSVKGRFTISRDNSKNTLYLQMNSLRAEDTAVYYCARDRYAYLVDGWFDYWGQGTLVTVSS
VL: DIQMTQSPSSLSASVGDRVTITCRASQGISSYLAWYQQKPGKAPKLLIYAASSLQSGVPSRFSGSGSGTDFTLTISSLQPEDFATYYCQQASYTGDPVTFGQGTKVEIK
In experiment [1], B2 returned a Kd of 7.67 nM, a koff of 0.00557 s⁻¹ and a kon of 726000 M⁻¹ s⁻¹.

B3: 抗体P59-L17 (antibody, IgG1, V domains shown)
VH: EVQLVESGGGLVQPGGSLRLSCAASGFSFDTYAMSWVRQAPGKGLEWVSAISGDTGVTGYADSVKGRFTISRDNSKNTLYLQMNSLRAEDTAVYYCARDRYAYLVDGWFDYWGQGTLVTVSS
VL: DIQMTQSPSSLSASVGDRVTITCRASQGISSYLAWYQQKPGKAPKLLIYAASSLQSGVPSRFSGSGSGTDFTLTISSLQPEDFATYYCQTWSGWPDYLTFGQGTKVEIK
notes: also called P59-17
In the case of B3, the “IC50 of the inhibition of the enzyme activity of cell membrane CD73 (MDA-MB-231 cells, AMP/ATP luminescence assay)” value in experiment [2] was 0.127 µg/mL. This molecule showed an EC50 in experiment [3] of 0.0427 µg/mL. This molecule had a half-maximal effective concentration (EC50) in experiment [4] of 0.438 µg/mL. In addition, the binding result in experiment [5] is recorded as “no binding (tested: 4μg/ml (highest concentration tested))”. In experiment [6], this molecule showed an EC50 of 0.0339 µg/mL. In experiment [1], this molecule displayed a Kd of 0.569 nM, a koff of 0.000126 s⁻¹ and a kon of 221000 M⁻¹ s⁻¹.

B4: 抗体P59-L6 (antibody, IgG1, V domains shown)
VH: EVQLVESGGGLVQPGGSLRLSCAASGFSFDTYAMSWVRQAPGKGLEWVSAISGDTGVTGYADSVKGRFTISRDNSKNTLYLQMNSLRAEDTAVYYCARDRYAYLVDGWFDYWGQGTLVTVSS
VL: DIQMTQSPSSLSASVGDRVTITCRASQGISSYLAWYQQKPGKAPKLLIYAASSLQSGVPSRFSGSGSGTDFTLTISSLQPEDFATYYCAQYDFSFYGVTFGQGTKVEIK
In experiment [1], B4 registered a Kd of 1.85 nM, a koff of 0.000198 s⁻¹ and a kon of 107000 M⁻¹ s⁻¹.
